Source: US20250019427A1 (BYOMASS, published 2025)
Positions count from the first letter of the chain named.

T1: Human BMP9 (human, UniProt Q9UK05 320-429)
T1 sequence (looked up): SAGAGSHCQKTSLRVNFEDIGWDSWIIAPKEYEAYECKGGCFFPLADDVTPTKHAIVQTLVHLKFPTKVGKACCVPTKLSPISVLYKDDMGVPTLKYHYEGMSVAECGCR

T2: Human Activin A Fc (human, UniProt P08476 311-426)
T2 sequence (looked up): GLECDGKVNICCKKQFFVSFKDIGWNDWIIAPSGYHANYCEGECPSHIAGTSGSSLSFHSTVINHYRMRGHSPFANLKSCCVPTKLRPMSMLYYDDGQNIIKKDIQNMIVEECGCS

T3: GDF10 (UniProt P55107 369-478)
T3 sequence (looked up): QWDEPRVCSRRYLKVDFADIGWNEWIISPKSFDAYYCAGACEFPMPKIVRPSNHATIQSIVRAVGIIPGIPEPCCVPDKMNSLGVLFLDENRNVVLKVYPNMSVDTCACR

T4: GDNF (UniProt P39905 78-211)
T4 sequence (looked up): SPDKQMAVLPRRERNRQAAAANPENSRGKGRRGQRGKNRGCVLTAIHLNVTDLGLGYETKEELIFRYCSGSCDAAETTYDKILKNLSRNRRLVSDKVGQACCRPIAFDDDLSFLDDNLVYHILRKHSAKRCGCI

T5: Human Activin B (human, UniProt P09529 293-407)
T5 construct: Also used for the Activin B ligand of the ActRIIB/SMAD reporter assay, where the species is not restated
T5 sequence (looked up): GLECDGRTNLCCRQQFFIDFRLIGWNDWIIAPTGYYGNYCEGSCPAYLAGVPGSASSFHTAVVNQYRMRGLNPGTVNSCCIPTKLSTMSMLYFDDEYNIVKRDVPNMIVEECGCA

T6: Human BMP10 (human, UniProt O95393 317-424)
T6 sequence (looked up): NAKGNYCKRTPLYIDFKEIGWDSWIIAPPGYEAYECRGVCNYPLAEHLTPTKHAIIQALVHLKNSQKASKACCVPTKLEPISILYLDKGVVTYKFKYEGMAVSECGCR

T7: GDF15 (Homo sapiens (Human), UniProt Q99988 30-308)
T7 sequence: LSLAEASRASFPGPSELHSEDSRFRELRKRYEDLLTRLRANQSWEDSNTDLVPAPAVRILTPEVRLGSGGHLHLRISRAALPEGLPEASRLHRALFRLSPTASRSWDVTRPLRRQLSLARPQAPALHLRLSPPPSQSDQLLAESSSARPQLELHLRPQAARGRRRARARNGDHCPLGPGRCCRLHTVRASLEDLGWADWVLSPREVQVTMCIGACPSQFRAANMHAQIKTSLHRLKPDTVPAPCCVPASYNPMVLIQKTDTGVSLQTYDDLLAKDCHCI

T8: Cyno GDF15 Fc (cyno, UniProt G7PWZ3 193-308)
T8 construct: also called cyno GDF15-Fc fusion
T8 sequence: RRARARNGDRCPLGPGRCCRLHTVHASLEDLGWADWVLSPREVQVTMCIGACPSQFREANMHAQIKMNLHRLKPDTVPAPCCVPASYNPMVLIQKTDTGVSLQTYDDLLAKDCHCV

T9: Mouse GDF15 Fc (mouse, UniProt Q9Z0J7 189-303, limits assumed)
T9 construct: also called mouse GDF15Fc fusion
T9 sequence (looked up): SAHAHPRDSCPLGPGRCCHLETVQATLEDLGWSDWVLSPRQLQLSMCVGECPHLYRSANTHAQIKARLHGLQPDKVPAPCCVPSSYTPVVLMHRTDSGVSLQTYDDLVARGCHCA

T10: Rat GDF-15 Fc (rat, UniProt Q9Z0J6 189-303, limits assumed)
T10 sequence (looked up): T9 sequence (looked up) with A4L, Q63L, K75R, R110Q

B1: Clone N IgG (antibody, V domains shown)
VH: QVQLVQSGAEVKKPGASVKVSCKASGYTFTDYGIFWVRQAPGQGLEWMGWITAYSGDTHYAQKLQGRVTMTTDTSTSTAYMELRSLRSDDTAVYYCVRDTQYGGSPYWGQGTLVTVSS
VL: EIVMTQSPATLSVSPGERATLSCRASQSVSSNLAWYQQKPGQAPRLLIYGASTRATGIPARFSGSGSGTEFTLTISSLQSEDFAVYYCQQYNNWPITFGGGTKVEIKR
notes: IgG format
B2: Clone E IgG (antibody, V domains shown)
VH: QVQLVQSGAEVKKPGASVKVSCKASGYTFTSYGINWVRQAPGQGLEWMGWITAYSGDTNYAQKLQGRVTMTTDTSTSTAYMELRSLRSDDTAVYYCARGPGQYADVDVWGQGTMVTVSS
VL: DIQMTQSPSSVSASVGDRVTITCRASQGISSWLAWYQQKPGKAPKLLIYAASSLQSGVPSRFSGSGSGTDFTLTISSLQPEDFATYYCQQANSFPITFGGGTKVEIKR
notes: IgG format
B3: Clone O IgG (antibody, V domains shown)
VH: QVQLVQSGAEVKKPGATVKVSCKASGYTFDSLGMSWVRQAPGQGLEWMGYISTYSGDTVYAQKLQGRVTMTTDTSTSTAYMELRSLRSDDTAVYYCARESGQQVSALDPWGQGTLVTVSS
VL: B2 VL with S31R, A91G, N92A, I96L
notes: IgG format
B4: Clone I IgG (antibody, V domains shown)
VH: B2 VH with S31D, Y32E, N59V
VL: B2 VL
notes: IgG format
B5: Clone B IgG (antibody, V domains shown)
VH: QVQLQESGPGLVKPSQTLSLTCTVSGGSISSGGIYWTWIRQHPGKGLEWIGAIAYSGSTYYNPSLKSRVTISVDTSKNQFSLKLSSVTAADTAVYYCARGIEYQHFDYWGQGTLVTVSS
VL: not shown
notes: IgG format; AAGA mutation in the Fc region stated for the FcRn test; also called GDF15 antibody agent Clone B
B6: Clone D IgG (antibody, V domains shown)
VH: B5 VH with S30N, I34Y, A54Y, Y60V, I101V, D107N, Y108E
VL: not shown
notes: IgG format
B7: Clone Q IgG (antibody, V domains shown)
VH: B5 VH
VL: not shown
notes: IgG format
B8: Clone R IgG (antibody, V domains shown)
VH: B5 VH with K66E
VL: not shown
notes: IgG format
B9: Clone C IgG (antibody, V domains shown)
VH: B5 VH with I34Y, T37S, A54V, S58H, I101V, D107S, Y108L
VL: not shown
notes: IgG format; AAGA mutation in the Fc region stated for the FcRn test; also called GDF15 antibody agent Clone C

molecular target: T1, Human BMP9; assay: Octet BLI, IgG on tip, avid

| binding result | Binder |
| --- | --- |
| no binding (tested: 100 nM) | B1 |
| no binding (tested: 100 nM) | B2 |
| no binding (tested: 100 nM) | B3 |
| no binding (tested: 100 nM) | B4 |

molecular target: T11, GDF11 (UniProt O95390 299-407); assay: Octet BLI, IgG on tip, avid
T11 construct: Also the GDF-11 ligand of the ActRIIB/SMAD reporter assay
T11 sequence (O95390 299-407 limits assumed): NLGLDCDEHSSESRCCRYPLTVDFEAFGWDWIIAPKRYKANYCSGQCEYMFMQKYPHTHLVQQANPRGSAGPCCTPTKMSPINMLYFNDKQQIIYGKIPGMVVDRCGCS

| binding result | Binder |
| --- | --- |
| no binding (tested: 100 nM) | B1 |
| no binding (tested: 100 nM) | B5 |
| no binding (tested: 100 nM) | B6 |
| no binding (tested: 100 nM) | B7 |
| no binding (tested: 100 nM) | B8 |
| no binding (tested: 100 nM) | B9 |
| no binding (tested: 100 nM) | B2 |
| no binding (tested: 100 nM) | B3 |
| no binding (tested: 100 nM) | B4 |

molecular target: T2, Human Activin A Fc; assay: Octet BLI, IgG on tip, avid

| binding result | Kd [nM] | Binder |
| --- | --- | --- |
| no binding (tested: 100 nM) |  | B1 |
|  | 7.87 | B6 |
|  | 6.48 | B9 |
| no binding (tested: 100 nM) |  | B2 |
| no binding (tested: 100 nM) |  | B3 |
| no binding (tested: 100 nM) |  | B4 |

molecular target: T3, GDF10; assay: Octet BLI, IgG on tip, avid

| binding result | Kd [nM] | Binder |
| --- | --- | --- |
| no binding (tested: 100 nM) |  | B1 |
| no binding (tested: 100 nM) |  | B5 |
| no binding (tested: 100 nM) |  | B7 |
| no binding (tested: 100 nM) |  | B8 |
| no binding (tested: 100 nM) |  | B2 |
|  | 26.7 | B3 |
| no binding (tested: 100 nM) |  | B4 |

molecular target: T4, GDNF; assay: Octet BLI, IgG on tip, avid

| Kd [nM] | binding result | Binder |
| --- | --- | --- |
| 2.56 |  | B1 |
|  | no binding (tested: 100 nM) | B5 |
|  | no binding (tested: 100 nM) | B6 |
|  | no binding (tested: 100 nM) | B7 |
|  | no binding (tested: 100 nM) | B8 |
|  | no binding (tested: 100 nM) | B9 |
|  | no binding (tested: 100 nM) | B2 |
|  | no binding (tested: 100 nM) | B3 |

molecular target: T5, Human Activin B; assay: Octet BLI, IgG on tip, avid

| binding result | Kd [nM] | Binder |
| --- | --- | --- |
| no binding (tested: 100 nM) |  | B1 |
|  | 145 | B5 |
| no binding (tested: 100 nM) |  | B6 |
|  | 172 | B7 |
|  | 188 | B8 |
|  | 132 | B9 |
| no binding (tested: 100 nM) |  | B2 |
| no binding (tested: 100 nM) |  | B3 |
| no binding (tested: 100 nM) |  | B4 |

molecular target: GDF8 (UniProt O14793 267-375); assay: Octet BLI, IgG on tip, avid

| binding result | Binder |
| --- | --- |
| no binding (tested: 100 nM) | B1 |
| no binding (tested: 100 nM) | B5 |
| no binding (tested: 100 nM) | B6 |
| no binding (tested: 100 nM) | B7 |
| no binding (tested: 100 nM) | B8 |
| no binding (tested: 100 nM) | B9 |
| no binding (tested: 100 nM) | B2 |
| no binding (tested: 100 nM) | B3 |
| no binding (tested: 100 nM) | B4 |

molecular target: T6, Human BMP10; assay: Octet BLI, IgG on tip, avid

| binding result | Binder |
| --- | --- |
| no binding (tested: 100 nM) | B1 |
| no binding (tested: 100 nM) | B6 |
| no binding (tested: 100 nM) | B7 |
| no binding (tested: 100 nM) | B9 |
| no binding (tested: 100 nM) | B2 |
| no binding (tested: 100 nM) | B3 |
| no binding (tested: 100 nM) | B4 |

molecular target: T1, Human BMP9; assay: Octet BLI, IgG on tip, avid; P.F. = binder with poor fit

| binding result | Binder |
| --- | --- |
| binds | B5 |
| binds | B6 |
| binds | B7 |
| binds | B8 |
| binds | B9 |

molecular target: T3, GDF10; assay: as above

| binding result | Binder |
| --- | --- |
| binds | B6 |

molecular target: T7, GDF15; assay: cell-based or functional assay

| GDF15 - GFRAL RET pERK IC50 (pM) | GDF15 - GFRAL-RET Luciferase IC50 (pM) | Binder |
| --- | --- | --- |
| 99.7 |  | B1 |
| 104 | 66.2 | B5 |
| 50.4 | 58.7 | B6 |
| 145 | 39.6 | B9 |
| 35 | 190 | B2 |
|  | 150 | B3 |
| 34.5 | 79.3 | B4 |

molecular target: T8, Cyno GDF15 Fc; assay: Octet BLI, IgG on AHC tip, avid
Description: (§1) Briefly, ForteBio affinity measurements were performed by loading IgGs on-line onto AHC sensors. Sensors were equilibrated off-line in assay buffer for 30 min and then monitored on-line for 60 seconds for baseline establishment. Sensors with loaded IgGs were exposed to 100 nM antigen for 3 minutes, and afterwards were transferred to assay buffer for 3 min for off-rate measurement. All kinetics were analyzed using the 1:1 binding model.

| Kd [nM] | Binder |
| --- | --- |
| 0.219 | B1 |
| 0.422 | B5 |
| 0.141 | B6 |
| 0.0862 | B9 |
| 0.178 | B2 |
| 3.04 | B4 |

molecular target: T9, Mouse GDF15 Fc; assay: Octet BLI, IgG on AHC tip, avid
Description: as §1

| Kd [nM] | Binder |
| --- | --- |
| 0.219 | B1 |
| 0.358 | B5 |
| 0.299 | B6 |
| 0.331 | B9 |
| 0.194 | B2 |
| 0.152 | B4 |

molecular target: T10, Rat GDF-15 Fc; assay: Octet BLI, IgG on AHC tip, avid
Description: as §1

| Kd [nM] | Binder |
| --- | --- |
| 0.358 | B1 |
| 0.621 | B5 |
| 0.467 | B6 |
| 0.437 | B9 |
| 0.451 | B2 |
| 1.18 | B4 |
